Assay results reported in PMC5951680.

Biological target: zebrafish TRPC4 (TRPC4DR) (Danio rerio (zebrafish))
Experiment: cryo-EM structure; TRPC4DR in amphipols A8-35, unliganded (apo), closed state; buffer C (PBS pH 7.4, 1 mM TCEP); 0.25 mg/ml on the grid; C4 symmetry imposed; 3.6 Å

zebrafish TRPC4 (TRPC4DR) (natural protein)
stoichiometry N: 4
